Data as given in the DeepSol protein solubility set.

Experiment: soluble on expression in E. coli; label from the status in PepcDB or PDB records

| Sequence | soluble on expression in E. coli |
| --- | --- |
| MGFDSPRGRGGGGFRGGRGGGSGFTPRGGGGGFRGGDRGRSPGGFRGGDRGRSSSGFRGGDRGRSPGGFRGDREGGFSPRGRGGGFRGGDRGGFRGGDRGGSPWRGGDRGNFRGGDRGGSPWRGGDRGVANRGRGDFSGGSRGGNKFSPRGGGRGGFTPRGRGGNDFSPRGGRGNFQSRGGGSRVGFSDKRKQYDSDGDDDEEEEVPKKKLATGTPFAKQTKPVEDDSGEDEEDEEESDEEPQPPKKTAKSAIATAAEDSDDDEEDDDEEEEESDDDAPQVKKSVAVEEDEEDEEDEEEIEMDEEDEEEEEDEEETEPVAKTPAVKSSLKSVDSTKGKQVNLSKVATPTTVDKKAPATPHPAKTSKNAAGDVPKLNFDDDSDEEDEEDEEVEEEDEEEEEEEEDVPAKKAPVLKQSLSQIAQAIEEDSDDEDEDEEEEEDEEDEEEEEDTTNVPLIKSKADLLKQIAANRAAASAAQDSDEDEDEEDEEDVEEEDEEEEEEEDIPAVKPKVTEKQGGVKRKLDEPTVASKQVKSDGKSIISEEERRRQDRDSRSLFIKEIAKKAKDAEITGLVTGLDSFRRKKNSNFGWLVFNTVADCKKAHDVLSKSKIQGKALYVDFCLSESKAPKEHGVRPINPLQLFINALPGTCNNTDLKNIFRSSTDIKILHASGQPNSKKRAFITFGTVEDAQAAFAKSNGLKVNNHLVDVFYARHQETKVDVKPKKAATPAVQKKIVPKVAADSSGDDSEEVASSDEGIQEVEEEQPKQKKLVKKVEPKTIPRVQQKKPQFKKTGFKGKK | not soluble |
| MGFNVKTPLLATDVIIRLWDGENFKGIVLIERKYPPVGLALPGGFVEVGERVEEAAAREMREETGLEVRLHKLMGVYSDPERDPRAHVVSVVWIGDAQGEPKAGSDAKKVKVYRLEEIPLDKLVFDHKKIILDFLKGNY | soluble |
| MGFPKEGEKVQIHSYKHNGSIHRMWEETTILKGTQSLVIGANDRTVVTESDGRTWITREPAICYFHANYWFNVIGMLREDGVYYYCNLSSPFAYDPEALKYIDYDLDIKVYPDMTYTLLDEDEYEKHSEIMQYPPVIDTILKRNVAHLTQWIHQRKGPFAPDFVDMWYERYLMYRN | not soluble |
| MGGLLFSSLQHCQQGFVISNELRQQQSELTSTWDLMLQTRINLSRSAARMMMDASNQQSSAKTDLLQNAKTTLAQAAAHYANFKNMTPLPAMAEASANVDEKYQRYQAALAELIQFLDNGNMDAYFAQPTQGMQNALGEALGNYARVSENLYRQTFDQSAHDYR | soluble |
| MGGSHHHHHHGMASALETNYLKRCFGNCLAQALAEVAKVRPSDPIEYLAHWLYHYRKTAKAKEENREKKIHLQEEYDSSLKEMEMTEMLKQEEYQIQQNCEKCHKELTSETVSTKKTIFMQEDTNPLEKEALKQEFLPGTSSLIPGMPQQVPPSESAGQIDQNFKMPQEINYKEAFQHEVAHEMPPGSKSPF | not soluble |
| MGGSHHHHHHGMASALKAHMVRQHSRRQDLLPQLEAPSSLTPSSELSSPGQSELTNMDLAALFSDTPANASGSAGGSDEALNSGILTIDVTSVSSSLGGNLPANNSSLGPMEPLVLVAHSDIPPSLDSPLVLGTAATVLQQGSFSVDDVQTVSAGALGCLVALPMKNLSDDPLALTSNSNLAAHITTPTSSSTPRENASVPELLAPIKVEPDSPSRPGAVGQQEGSHGLPQSTLPSPAEQHGAQDTELSAGTGNFYLESGGSARTDYRAIQLAKEKKQRGAGSNAGASQSTQRKIKEGKMSPPHFHASQNSWLCGSLVVPSGGRPGPAPAAGVQCGAQGVQVQLVQDDPSGEGVLPSARGPATFLPFLTVDLPVYVLQEVLPSSGGPAGPEATQFPGSTINLQDLQ | not soluble |
| MGHHHHHHGGHMSLLRFLEVVSEHIKNLRNHIDLETVGEMIKLIDSARSIFVIGAGRSGYIAKAFAMRLMHLGYTVYVVGETVTPRITDQDVLVGISGSGETTSVVNISKKAKDIGSKLVAVTGKRDSSLAKMADVVMVVKGKMKQERDEILSQLAPLGTMFELTAMIFLDALVAEIMMQKHLTEKDLEARHAVLEEGGS | soluble |
| MGHHHHHHGGHMSLSPVLTQHVSQPITLDEQTQKMKRHLLQDIRRSAYVYRVDCGGCNACEIEIFAAITPVFDAERFGIKVVSSPRHADILLFTGAVTRAMRMPALRAYESAPDHKICVSYGACGVGGGIFHDLYSVWGGSDTIVPIDVWIPGCPPTPAATIHGFAVALGLLQQKIHAVDYRDPTGVTMQPLWPQIPPSQRIAIEREARRLAGYRQGREICDRLLRHLSDDPTGNRVNTWLRDADDPRLNSIVQQLFRVLRGLHDEGGS | soluble |
| MGHHHHHHGGHMSLTISLAKGQKVDLTKTNPGLSKVVVGLGWDTNKYDGGHDFDLDSSVFLLDAAGKCASPNDFIFYNQLEGGNGSVVHSGDNLTGAGEGDDENVKVNLSAVPANIDKISFVITIHDAEARSQNFGQVSNAFVRIVNEETNEELIRYDLAEDFSIETAIIAGELYRHNGEWKFSAIGSGYQGGLARIATDYGLQVGEGGS | soluble |
| MGHHHHHHGGHMSLTSALPRPAPSPYARRKTALVIGAGFGGLALGIRLQSLGFDTTILERLDGPGGRAYQKRTPDGYVFDMGPTVLTVPHFIEELFALERDRAGLDAPDYPPEVLSGERVKEGVSGGPHTSRYVTLVPILPFYRIVFHDGTYFDYDGDPESTRRQIAELAPGDLAGYERFHADAEAIFRRGFLELGYTHFGDVPTMLRVVPDLLKLDAVRTLFSFTSKYFQSDKLRQVFSFETLLVGGNPLSVPAIYAMIHFVEKTWGIHYAMGGTGALVRGLVQKFEELGGAIRYGAGVDEVLVDGNLPGKRTARGVRLESGEELRADLVASNGDWANTYLKRVRPSARLVNSDLRVKAASESMSLLVVYFGFRGGDDLPLKHHNILLGPRYEALLSEIFGTKRLGEDFSQYLHVPTLTDPALAPAGHHAAYTLVPVPHNGSGIDWDVEGPKLAEAALADIERRGLIPGLRERLTHFEFITPDYFAGTLDSYLGNAFGPEPRLVQSAFFRPHNRSEDLHNFYLVGAGAQPGAGTPSVMMSAKMTARLIAEDFGIHADIREGGS | soluble |
| MGHHHHHHGSTTQRNAQIAMGRKKFNMDPKKGIQFLIENDLLQSSPEDVAQFLYKGEGLNKTVIGDYLGERDDFNIKVLQAFVELHEFADLNLVQALRQFLWSFRLPGEAQKIDRMMEAFASRYCLCNPGVFQSTDTCYVLSFAIIMLNTSLHNHNVRDKPTAERFITMNRGINEGGDLPEELLRNLYESIKNEPFKIPEDDGNDLTHTFFNPDREGWLLKLGGRVKTWKRRWFILTDNCLYYFEYTTDKEPRGIIPLENLSIREVEDPRKPNCFELYNPSHKGQVIKACKTEADGRVVEGNHVVYRISAPSPEEKEEWMKSIKASISRDPFYDMLATRKRRIANKK | soluble |
| MGHHHHHHSAISVWRAVDYVRMPWKNGGGSTEEITRDAGTGLEGFGWRLSIADIGESGGFSSFAGYQRVITVIQGAGMVLTVDGEEQRGLLPLQPFAFRGDSQVSCRLITGPIRDFNLIYSPERYHARLQWVDGVQRFFSTAQTVLVFSVADEVKVLGEKLGHHDCLQVDGNAGLLDISVTGRCCLIELTQRG | soluble |
| MGHHHHHHSHATGNVCIEEIDVDGKFIRLKNTSEQDQPMGGWEMIRKIGDTSVSYKYTSRYVLKAGQTVTIWAANAGVTASPPTDLIWKNQNSWGTGEDVKVILKNSQGEEVAQRSTVFKT | not soluble |
| MGHHHHHHSHGDAAPEALEFEYDLAEPPEKVWRALTVPELLAAWMMPNDIRPEIGNRFAFAGTEAAIECEILDAEPERLLRYSWRQQPGDAARQDPLDSVVTFTLARTVSGGTHLRIVHDGFGGKAMPAVAMASG | not soluble |
| MGHHHHHHSHGLPLWVSERILQQINQLTHYEPVIGIMGKTGAGKSSLCNALFAGEVSPVSDVAACTRDPLRFRLQIGEHFMTIVDLPGVGESGVRDTEYAALYREQLPRLDLILWLIKADDRALATDEHFYRQVIGEAYRHKMLFVISQS | not soluble |
| MGHHHHHHSHMAAEPVEDNCINFVAMKFIDNTLYFIAEDDENLESDYFGKLESKLSVIRNLNNQVLFIDQGNRPLFEDMTDSDCRDNAPRTIFIISMYKDSQPRGMAVTISVKCEKISTLSCENKIISFKEVNPPDNIKDTKSDIIFFQRSVPGHDNKMQFESSSYEGYFLTCEKERDLFKLILKKEDELGDRSIMFTVQNED | soluble |
| MGHHHHHHSHMAGGGAGDPGLGAAAAPAPETREHLFKVLVIGELGVGKTSIIKRYVHQLFSQHYRATIGVDFALKVLNWDSRTLVRLQLWDIAGQERFGNMTRVYYKEAVGAFVVFDISRSSTFEAVLKWKSDLDSKVHLPNGSPIPAVLLANKCDQNKDSSQSPSQVDQFCKEHGFAGWFETSAKDNINIEEAARFLVEKILVNHQSFPNEENDVDKIKLDQETLRAENKSQCC | soluble |
| MGHHHHHHSHMANSAGSMANSAGSMAKTIKDIKAMVEQAAIQSIHKSSSNVKQIMVKTGQEHIVEDVYGAYDPLLYERTGQVKDAFITTNESNGVSLDNIREDDGKDIATVIETGQGYTYPDSYGYGYGNPRPFMKNTSETLRDGRLTAALKKDLKADGIKTD | not soluble |
| MGHHHHHHSHMANSAGSMANSAGSMFDGISLTEHQRQQMRDLMQQARHEQPPVNVSELETMHRLVTAENFDENAVRAQAEKMANEQIARQVEMAKVRNQMYRLLTPEQQAVLNEKHQQRMEQLRDVTQWQKSSSLKLLSSSNSRSQ | not soluble |
| MGHHHHHHSHMANSAGSMANSAGSMFKLYSLAREFARDLLFEINGDVVTLSIKGVLLANTSSTSSNFSIFEVSENEFILAIQTSGYVVYLGIEAEEEIEEEVYPSLVRIIISEVMPIINNLVQVAKELSYKGADILLDDNMSSSLREAMYNLLLKHKKGKSPYEQVEVA | not soluble |
| MGHHHHHHSHMDLSYALETVLNKQFPSSPQDVLGELQFAFVCFLLGNVYEAFEHWKRLLNLLCRSEAAMMKHHTLYINLISILYHQLGEIPADFFVDIVSQDNFLTSTLQVFFSSACSIAVDATLRKKAEKFQAHLTKKFRWDFAAEPEDCAPVVVELPEGIEMG | not soluble |
| MGHHHHHHSHMEDLLDLDEELRYSLATSRAKMGRRAQQESAQAENHLNGKNSSLTLTGETSSAKLPRCRQGGWAGDSVKASNGTQTGKQQLDLNACYHKTHHRNLGLASLEEADIPIIPDLEEVQEEDFVLQVAAPPSIQIKRVMTYRDLDNDLMKYSAIQTLDGEIDLKLLTKVLAPEHEVREDDVGWDWDHLFTEVSSEVLTEWDPLQTEKEDPAGQARHT | soluble |
| MGHHHHHHSHMEEKFEDRSPAAECLSEKETEELMAWMRNVLGSRVTNVKVTLRLDTHPAMVTVLEMGAARHFLRMQQLAKTQEERAQLLQPTLEINPRHALIKKLNQLRASEPGLAQLLVDQIYENAMIAAGLVDDPRAMVGRLNELLVKALERH | soluble |
| MGHHHHHHSHMEKSAPSIILNHWCVTWQGHHFLCRNLSNIKILNRRNGYTTLDLPLTLGDLTQYRLAHGLSENLMALSPYSWTIPFLVSSSETPGIELLPKVINDFGTPLSLAIKTNLPSIPAHQLLFYIIFLRPSPLTSMSCYARPLSLASTPSTNGLCQSVSVLDNKPGLLITTPLHRDPASGKYTSNVQSPTTFNLFRVLYIKLSGEEGMVSQKVKHLTIDKDSLQEGFLQLCLNMCGVSYETLQCEILLELVQGPTNFIFPAAFPPPVSLPHRNCIELTCDTERCLKPGDVMKLKHRLLYELGQRGDTPQNAFLIVGAHSPETVWISPSLWLPGQPLYINIINLSHKPLLLSRHSILALAIPISYTRAPASAHEATDTTICYSGNSRVLTCGAAHVLEAHFKHPPITSRAITDGGESPMEWQTL | not soluble |
| MGHHHHHHSHMEMASADSDEDPRHKVGKTPHLTLPADLQTLHLNRPTLSPESKLEWNNDIPEVNHLNSEHWRKTEKWTGHEETNHLETDFSGDGMTELELGPSPRLQPIRRHPKELPQYGGPGKDIFEDQLYLPVHSDGISVHQMFTMATAEHRSNSSIAGKMLTKVEKNHEKEKSQHLEGSASSSLSSD | not soluble |
